Common to all, as to experiment: cell-based or functional assay
The target of experiment [1] is HIV-1 Env of isolate MGRM-G-009 (HIV-1).
Experiment [2] deals with HIV-1 APV17 Env (pseudovirus) (HIV-1).
In experiment [3] the target is HIV-1 Env of isolate MGRM-G-017 (HIV-1).
In experiment [4] the target is HIV-1 Env of isolate 93UG077 (HIV-1).
Experiment [5] deals with HIV-1 envelope glycoprotein (Env) of isolate MGRM-C-008 (HIV-1).
For experiment [6], the target named is HIV-1 Env of isolate MGRM-AG-006 (subtype AG) (HIV-1).
For experiment [7], the target named is HIV-1 Env of isolate MGRM-A-014 (subtype A) (HIV-1).
The target of experiment [8] is HIV-1 envelope glycoprotein (Env) of isolate MGRM-C-010 (HIV-1).
Experiment [9] has as its target HIV-1 Env of isolate MGRM-Chronic-B-010 (subtype B) (HIV-1).
For experiment [10], the target named is HIV-1 envelope glycoprotein (Env) of isolate MGRM-C-025 (HIV-1).
The target in experiment [11] is HIV-1 Env of isolate MGRM-A-004 (HIV-1).
Experiment [12] addresses HIV-1 Env of isolate MGRM-A-010 (subtype A) (HIV-1).
Experiment [13] concerns the target HIV-1 Env of isolate MG RM-D-016 (HIV-1).
Experiment [14] deals with HIV-1 Env of isolate MGRM-Chronic-B-018 (subtype B) (HIV-1).
The target of experiment [15] is HIV-1 Env of isolate MGRM-AG-005 (subtype AG) (HIV-1).
Experiment [16] concerns the target HIV-1 Env of isolate MGRM-A-009 (subtype A) (HIV-1).
The target of experiment [17] is HIV-1 Env of isolate PVO.4 (subtype B) (HIV-1).
The target of experiment [18] is HIV-1 Env of isolate MG RM-D-014 (HIV-1).
Experiment [19] has as its target HIV-1 Env of isolate MGRM-C-027 (HIV-1).
The target in experiment [20] is HIV-1 envelope glycoprotein (Env) of isolate 92RW009, clade A (HIV-1).
Experiment [21] deals with HIV-1 Env of isolate MGRM-D-012 (clade D pseudovirus) (HIV-1).
For experiment [22], the target named is HIV-1 Env of pseudovirus MGRM-Chronic-B-017 (HIV-1).
Experiment [23] deals with HIV-1 Env of isolate 92RW024 (clade A pseudovirus) (HIV-1).
The target in experiment [24] is HIV-1 Env of isolate MGRM-D-002 (clade D pseudovirus) (HIV-1).
In experiment [25] the target is HIV-1 Env of isolate MGRM-D-013 (clade D pseudovirus) (HIV-1).
The target in experiment [26] is HIV-1 envelope glycoprotein (Env) of isolate 92RW020, clade A (HIV-1).
The target in experiment [27] is HIV-1 Env of isolate 92UG001 (clade D pseudovirus) (HIV-1).
Experiment [28] concerns the target HIV-1 Env of pseudovirus MGRM-Chronic-B-023 (HIV-1).
The target in experiment [29] is HIV-1 Env of pseudovirus MGRM-AE-008 (clade CRF01_AE) (HIV-1).
Experiment [30] addresses HIV-1 MGRM-A-010 Env (pseudovirus, clade A) (HIV-1).
Experiment [31] deals with HIV-1 envelope glycoprotein (Env) of isolate 92RW008, clade A (HIV-1).
For experiment [32], the target named is HIV-1 Env of isolate TRJ0.58 (Acute), clade B, on pseudovirus (HIV-1).
The target of experiment [33] is HIV-1 Env of isolate 93MW959 (clade C) (HIV-1 isolate 93MW959).
Experiment [34] addresses HIV-1 envelope glycoprotein (Env) of isolate 92UG031, clade A (HIV-1).

Some results are limits rather than exact numbers.

Sequence of 5345_I01 (PGT-137) (antibody) (VH): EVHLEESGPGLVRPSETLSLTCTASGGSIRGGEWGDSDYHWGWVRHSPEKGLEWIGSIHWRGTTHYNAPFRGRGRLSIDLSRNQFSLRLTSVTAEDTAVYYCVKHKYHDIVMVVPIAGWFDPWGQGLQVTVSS
Sequence of 5345_I01 (PGT-137) (antibody) (VL): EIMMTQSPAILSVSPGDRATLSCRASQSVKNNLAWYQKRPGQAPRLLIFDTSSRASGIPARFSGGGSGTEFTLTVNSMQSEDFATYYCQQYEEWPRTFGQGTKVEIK
Sequence of 4970_K22 (PGT-144) (antibody) (VH): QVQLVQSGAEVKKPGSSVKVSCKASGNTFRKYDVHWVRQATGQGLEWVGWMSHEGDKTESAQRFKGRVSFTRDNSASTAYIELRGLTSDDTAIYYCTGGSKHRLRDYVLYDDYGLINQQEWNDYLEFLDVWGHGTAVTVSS
Sequence of 4970_K22 (PGT-144) (antibody) (VL): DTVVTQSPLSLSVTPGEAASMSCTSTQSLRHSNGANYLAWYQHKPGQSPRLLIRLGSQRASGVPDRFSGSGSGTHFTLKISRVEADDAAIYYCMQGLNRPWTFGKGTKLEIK
Sequence of 4993_K13 (PGT-141) (antibody) (VH): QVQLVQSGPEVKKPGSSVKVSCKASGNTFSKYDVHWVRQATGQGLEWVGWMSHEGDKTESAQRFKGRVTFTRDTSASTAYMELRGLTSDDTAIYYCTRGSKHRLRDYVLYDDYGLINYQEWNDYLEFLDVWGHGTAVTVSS
Sequence of 4993_K13 (PGT-141) (antibody) (VL): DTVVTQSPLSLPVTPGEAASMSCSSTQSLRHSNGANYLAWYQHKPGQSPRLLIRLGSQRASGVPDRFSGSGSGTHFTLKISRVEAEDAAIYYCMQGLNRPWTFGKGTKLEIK
Sequence of 4995_E20 (PGT-142) (antibody) (VH): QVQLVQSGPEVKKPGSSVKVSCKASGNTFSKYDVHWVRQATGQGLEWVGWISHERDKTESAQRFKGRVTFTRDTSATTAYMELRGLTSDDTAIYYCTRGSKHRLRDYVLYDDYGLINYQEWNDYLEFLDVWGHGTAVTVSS
Sequence of 4980_N08 (PGT-143) (antibody) (VH): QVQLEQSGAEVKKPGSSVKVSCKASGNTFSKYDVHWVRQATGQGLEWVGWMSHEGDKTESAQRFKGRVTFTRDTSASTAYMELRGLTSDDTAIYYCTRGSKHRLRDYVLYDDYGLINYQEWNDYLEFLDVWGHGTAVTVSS
Sequence of 4980_N08 (PGT-143) (antibody) (VL): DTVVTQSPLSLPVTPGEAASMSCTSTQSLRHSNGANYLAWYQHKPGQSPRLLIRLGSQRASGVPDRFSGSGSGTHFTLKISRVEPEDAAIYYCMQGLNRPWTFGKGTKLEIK

Take 4970_K22 (PGT-144) (antibody): the values for the IC50 (µg/mL), pseudovirus neutralization in experiment [1] and in experiment [3] were > 50 µg/mL and 9.97 µg/mL, respectively. Also, the IC50 (neutralizing activity, pseudovirus) in [2] turned out to be 5.12 µg/mL.

Turning to 5136_H01 (PGT-131) (antibody), the IC50 in experiment [4] and in experiment [11] was > 50 µg/mL in each case. The IC50 (µg/mL), pseudovirus neutralization in [5] was > 50 µg/mL; in [6] it was 0.019 µg/mL; in experiment [7], 15.4 µg/mL; in [8], > 50 µg/mL; in [10], > 50 µg/mL; in experiment [12] it was 0.01 µg/mL. Further, the IC50 (µg/mL), pseudovirus neutralization in [13] was > 50 µg/mL; in experiment [15] it was 1.04 µg/mL; in [16], 0.035 µg/mL; in experiment [18] it was 0.516 µg/mL. Also, the results for the IC50 neutralization in [9], in [14] and in experiment [17] were 0.016 µg/mL, > 50 µg/mL and > 50 µg/mL, respectively.

As for 4980_N08 (PGT-143) (antibody), the IC50 (µg/mL), pseudovirus neutralization in [1] amounted to 2.97 µg/mL; in [3], 0.107 µg/mL. Also, the IC50 (neutralizing activity, pseudovirus) in experiment [2] was found to be 0.618 µg/mL.

Regarding 4995_E20 (PGT-142) (antibody), the IC50 (µg/mL), pseudovirus neutralization in experiment [1] came to 2.81 µg/mL; in experiment [3] it was 0.125 µg/mL. The IC50 (neutralizing activity, pseudovirus) in [2] is 0.393 µg/mL.

In the case of VRC01 (antibody), the IC50 in experiment [13] came to 0.452 µg/mL; in experiment [18], 0.332 µg/mL. Moreover, the results for the IC50 (µg/mL), pseudovirus neutralization in experiment [1], in experiment [19] and in experiment [3] were 0.073 µg/mL, 0.125 µg/mL and 0.124 µg/mL, respectively.

As to 4993_K13 (PGT-141) (antibody), the IC50 (µg/mL), pseudovirus neutralization in experiment [1] was 1.89 µg/mL; in [3], 0.164 µg/mL. For the same substance, in [2], the IC50 (neutralizing activity, pseudovirus) worked out at 0.616 µg/mL.

Consider 5345_I01 (PGT-137) (antibody), for which the IC50 in [4] and in [11] was > 50 µg/mL in each case. The IC50 (µg/mL), pseudovirus neutralization in experiment [5] was > 50 µg/mL; in experiment [6], 28.3 µg/mL; in [7], 18.6 µg/mL; in experiment [8] it was > 50 µg/mL; in experiment [10] it was > 50 µg/mL; in [12], > 50 µg/mL. Also, the IC50 (µg/mL), pseudovirus neutralization in [13], in experiment [15], in [16] and in experiment [18] was > 50 µg/mL throughout. For the same substance, the IC50 neutralization in experiment [9], in experiment [14] and in experiment [17] was > 50 µg/mL in each case.

Turning to 1496_C09 (PG9) (TCN-109) (antibody), the IC50 (µg/ml), pseudovirus neutralization in [20] is 0.03 µg/mL; in experiment [21], 9.31 µg/mL; in [22], 0.32 µg/mL; in experiment [23], 0.18 µg/mL; in experiment [24], 0.027 µg/mL; in [25], 0.06 µg/mL. Besides, the IC50 (µg/ml), pseudovirus neutralization amounted to 0.08 µg/mL in experiment [26]; 41.8 µg/mL in [27]; 0.04 µg/mL in experiment [28]; 0.01 µg/mL in experiment [31]; 0.43 µg/mL in experiment [32]; 0.04 µg/mL in [33]. The substance further had an IC50 (µg/ml), pseudovirus neutralization in experiment [34] of 3.08 µg/mL. The substance further showed an IC50 in [29] of 10.6 µg/mL. The results for the IC50 (µg/mL), pseudovirus neutralization in [1] and in [3] were 10.7 µg/mL and 0.104 µg/mL, respectively. In experiment [30], this substance showed an IC50 neutralization of 0.0375 µg/mL.

Take PGV04 (antibody): the figures for the IC50 (µg/mL), pseudovirus neutralization in experiment [1] and in experiment [3] were 0.043 µg/mL and 0.065 µg/mL, respectively.

The values are drawn from patent US20250320281A1.
